Measured values from PMC3904923 (2014).

Columns and labels:
[1] = molecular target: T1, dansylated calmodulin (rat, UniProt P0DP30 1-149, dansyl group covalently bound to CaM (position not given)); test: absence of Ca2+
[2] = molecular target: T1, dansylated calmodulin; test: 3.9 uM Ca2+ (poor 1:1 fit, Bmax constrained)

- Kd [1]: 4.8 nM
- Kd [2]: 21.4 nM
B1: Kv7.2 CaM binding domain (residues 310–548), Q2AB WT (domain or fragment)
chain: not shown
